Laboratory results published in patent publication US20220251171A1, “APOLIPOPROTEIN E FRAGMENTS” (EISAI R&D MANAGEMENT CO., LTD., priority 2019, published 2022).

Columns and labels:
[1] = system: neurotoxic 12 kDa ApoE fragment; experiment: Western blot analysis of 12 kDa ApoE fragment production in rat hippocampal neurons expressing full-length human ApoE4; assay type: cell-based; conditions: rat hippocampal neurons infected with AAV-DJ full-length human ApoE4; treated at 11 DIV, collected at 14 DIV; concentration dependent; FIG. 14A
Protocol: (§1) Cell culture: The dissected hippocampi from fetuses obtained on embryonic day (E) 18 from timed pregnant Wistar rats (Charles River Laboratories) were digested using trypsinization and mechanical dissociation. The dissociated neurons were seeded at 1.0×10^5 cells/well in 24-well plate (Falcon). Infection of AAV-DJ with full-length human ApoE4 was performed at 7 days in vitro (DIV). 4-{4-[2-(3-methyl-4-oxo-3,4-dihydro-phthalazin-1-yl)-acetylamido]-benzyl}-piperazine-1-carboxylic acid tert-butyl ester (hereinafter also referred to as PH-002) (Merck) was treated at 4 days after infection (11 DIV). Sample collection for western blot and cytotoxicity analysis was performed at 7 days after infection (14 DIV).
Western blot analysis: Cells were lysed by RIPA buffer (50 mM Tris-HCl pH 7.6, 5 mM EDTA, 1 mM EGTA, 1% NP40, 0.25% sodium deoxycholate, 0.1 M NaCl, 0.5 mM PMSF) containing complete (EDTA-free) protease inhibitor cocktail (Roche) and PhosSTOP protein phosphatase inhibitor (Sigma), and sonicated. Sample Buffer Solution with Reducing Reagent (6×) (Nacalai Tesque) was added before SDS-PAGE. For SDS-PAGE, XV PANTERA MP Gel (DRC) 15% was used. For transfer, Trans-Blot Turbo (BIO-RAD) was used. For immunoblotting, iBind Western Systems (ThermoFisher Scientific) was used together with anti-ApoE PA5-27088 antibody (ThermoFisher Scientific). For detection, Fusion FX7 (Vilber Lourmat) was used.

rat hippocampal neurons = experiment: CytoTox-Glo Cytotoxicity Assay of treated rat hippocampal neurons; assay type: cell-based; conditions: conditioned medium of treated rat hippocampal neurons, 14 DIV; FIG. 14B
Protocol: as §1
Cytotoxicity analysis: Cytotoxicity of treated compound was evaluated by CytoTox-GIo™ Cytotoxicity Assay (Promega). In brief, 50 uL of conditioned medium and 50 uL of prepared CytoTox-GIo™ Cytotoxicity Assay reagent were mixed in 96-well white-walled plate (Sumitomo Bakelite). After incubation at room temperature for 15 min, luminescence was measured by SpectraMax iD5 (Molecular Devices).

[2] = literature, Chang et al.; cited from earlier work
Neuro2A cells = experiment: Mitochondrial respiration measurement (spare respiratory capacity) in vector-transfected Neuro2A cells; assay type: cell-based; conditions: Neuro2A cells expressing the fragment; FCCP respiration minus basal respiration; FIG. 13A
Protocol: Cell culture: Neuro2A cells (ATCC) were seeded at 5.0×10^4 cells/well in a 24 well plate (Falcon) and cultured in D-MEM High Glucose (WAKO) containing 10% fetal bovine serum. Transfection of pAAV-CMV vectors encoding human ApoE4 (full-length) or the identified ApoE fragments (198-299, 199-299, 200-299) was done using Lipofectamine LTX and Plus Reagent (Invitrogen) on 1 day after seeding. 2 days later, vector-transfected cells were collected for Western blot analysis or seeded again at 2.0×10^4 cells/well in a Seahorse XF96 cell culture microplate (Agilent Technologies) 4 hours before mitochondrial respiration measurement.
(§2) Mitochondrial respiration measurement: Real-time measurement of oxygen consumption rates (OCR) was performed using an Extracellular Flux Analyzer XFe96 (Agilent Technologies). Before measurement, the culture medium was replaced by 37° C. pre-warmed XF Base Medium (Agilent Technologies) containing 10 mM sodium pyruvate (Sigma), 10 mM D-glucose (Sigma), 2 mM glutamine (Sigma). The pH of the measurement medium was adjusted to 7.4. The culture plates were incubated at 37° C. for 60 min prior to the assay. For analysis of mitochondrial function, XF Cell Mito Stress Test Kit (Agilent Technologies) was used. Following measurement of basal OCR, mitochondrial complex inhibitors were injected sequentially into each cell. The inhibitors were used at the following concentrations: oligomycin 1 μM; carbonyl cyanide 4-(trifluoromethoxy)phenylhydrazone (FCCP) 0.25 μM for Neuro2A cells, 2 μM for rat hippocampal neurons; rotenone/antimycin A 0.5 μM. OCR values were automatically calculated, recorded and plotted by the XFe96 software. Spare respiratory capacity was measured as (FCCP respiration—basal respiration).

[3] = system: rat primary hippocampal neurons; experiment: Mitochondrial respiration measurement (spare respiratory capacity) in AAV6-infected rat hippocampal neurons; assay type: cell-based; conditions: 7 days after AAV6 infection (14 DIV), FIG. 13B
Protocol: For assays using rat hippocampal neurons, the dissected hippocampi from fetuses obtained on embryonic day (E) 18 from timed pregnant Wistar rats (Charles River Laboratories) were digested using trypsinization and mechanical dissociation. The dissociated neurons were seeded at 1.5×10^4 cells/well in Seahorse XF96 cell culture microplate (Agilent Technologies) for mitochondrial respiration measurement or 1.0×10^5 cells/well in 24-well plate (Falcon) for Western blot analysis. Infection of AAV6 with full-length human ApoE4 or identified ApoE fragments (198-299, 199-299, 200-299) was performed at 7 days in vitro (DIV). Measurement of mitochondrial respiration or sample collection for Western blot analysis was performed at 7 days after infection (14 DIV).
as §2

Aβ = conditions: literature, Pillot et al.; artificially-generated fragment; cited from earlier work

## Cn1nc(CC(=O)Nc2ccc(CN3CCN(C(=O)OC(C)(C)C)CC3)cc2)c2ccccc2c1=O [PH-002, 4-{4-[2-(3-methyl-4-oxo-3,4-dihydro-phthalazin-1-yl)-acetylamido]-benzyl}-piperazine-1-carboxylic acid tert-butyl ester]
[1]
  amount of neurotoxic 12 kDa ApoE fragment: reduction in the amount of neurotoxic 12 kDa ApoE fragment
Rat hippocampal neurons
  cytotoxicity: no cytotoxicity

## ApoE4(1-299): full-length ApoE4
[2]
  mitochondrial dysfunction and neurotoxicity: did not bring about these effects

B1: 198-299: C-terminal fragment consisting of amino acids 198-299 of human ApoE (SEQ ID NO: 3) (protein)
chain: LAGQPLQERAQAWGERLRARMEEMGSRTRDRLDEVKEQVAEVRAKLEEQAQQIRLQAEAFQARLKSWFEPLVEDMQRQWAGLVEKVQAAVGTSAAPVPSDNH
Neuro2A cells
  spare respiratory capacity: reduction in spare respiratory capacity
[3]
  spare respiratory capacity: reduction in spare respiratory capacity

B2: 199-299: C-terminal fragment consisting of amino acids 199-299 of human ApoE (SEQ ID NO: 2) (protein)
chain: AGQPLQERAQAWGERLRARMEEMGSRTRDRLDEVKEQVAEVRAKLEEQAQQIRLQAEAFQARLKSWFEPLVEDMQRQWAGLVEKVQAAVGTSAAPVPSDNH
Neuro2A cells
  spare respiratory capacity: reduction in spare respiratory capacity
[3]
  spare respiratory capacity: reduction in spare respiratory capacity

B3: 200-299: C-terminal fragment consisting of amino acids 200-299 of human ApoE (SEQ ID NO: 1) (protein)
chain: GQPLQERAQAWGERLRARMEEMGSRTRDRLDEVKEQVAEVRAKLEEQAQQIRLQAEAFQARLKSWFEPLVEDMQRQWAGLVEKVQAAVGTSAAPVPSDNH
Neuro2A cells
  spare respiratory capacity: reduction in spare respiratory capacity
Aβ
  inhibition of the fusogenic properties of Aβ: able to inhibit the fusogenic properties of Aβ
[3]
  spare respiratory capacity: reduction in spare respiratory capacity
